# B1: BvHPPD-02: native Beta vulgaris HPPD, SEQ ID NO: 105 (protein, listed as Beta vulgaris)
# chain: MGTLSPQPQTSPSQFKLVGYSNFIRVNPLSDLFPVKRFHHVEFWCGDATNVSRRFSWGLGMPIVAKSDLSTGNSVHASYLLRSGELHFLFTSPYSPSLSSPSSATIPTFSFSLFTSFLTSHGLAVRAVAVEVQDAEAAFHISVSNGASPVSPPIRLHDGVVLSEVHLYGDVVLRYVSTSSVVDGIFLPGFEEMLGESSFQELDFGLRRLDHAVGNVPELAPAIEYVKKFTGFHEFAEFTTEDVGTSESGLNSAVVANNDETVLFPMNEPVYGTKRKSQIQTYLEHNEGAGVQHLALMSEDIFWTLREMRKRSGLGGFEFMPSPPPTYYRNLRNRAADVLSEEQMKECEELGILVDKDDQGTLLQIFTKPIGDRPTMFIEIIQRIGCMMKDEEGKVYQKGGCGGFGKGNFSELFKSIEEYEKTLERKPIADTNAT
# modifications: BvHPPD Amino Acid Sequence
# B2: BvHPPDm-F372A-02: Beta vulgaris HPPD mutant F372A, SEQ ID NO: 108 (protein)
# chain: MGTLSPQPQTSPSQFKLVGYSNFIRVNPLSDLFPVKRFHHVEFWCGDATNVSRRFSWGLGMPIVAKSDLSTGNSVHASYLLRSGELHFLFTSPYSPSLSSPSSATIPTFSFSLFTSFLTSHGLAVRAVAVEVQDAEAAFHISVSNGASPVSPPIRLHDGVVLSEVHLYGDVVLRYVSTSSVVDGIFLPGFEEMLGESSFQELDFGLRRLDHAVGNVPELAPAIEYVKKFTGFHEFAEFTTEDVGTSESGLNSAVVANNDETVLFPMNEPVYGTKRKSQIQTYLEHNEGAGVQHLALMSEDIFWTLREMRKRSGLGGFEFMPSPPPTYYRNLRNRAADVLSEEQMKECEELGILVDKDDQGTLLQIATKPIGDRPTMFIEIIQRIGCMMKDEEGKVYQKGGCGGFGKGNFSELFKSIEEYEKTLERKPIADTNAT
# modifications: BvHPPDm-F372A Amino Acid Sequence
# B3: ZmHPPD-02: native Zea mays HPPD, SEQ ID NO: 17 (protein)
# chain: MPPTPTAAAAGAAVAAASAAEQAAFRLVGHRNFVRFNPRSDRFHTLAFHHVELWCADAASAAGRFSFGLGAPLAARSDLSTGNSAHASLLLRSGSLSFLFTAPYAHGADAATAALPSFSAAAARRFAADHGLAVRAVALRVADAEEAFRTSVAAGARPAFGPVDLGRGFRLAEVELYGDVVLRYVSYPDGAAGEPFLPGFEGVASPGAADYGLSRFDHIVGNVPELAPAAAYFAGFTGFHEFAEFTTEDVGTAESGLNSMVLANNSENVLLPLNEPVHGTKRRSQIQTFLDHHGGPGVQHMALASDDVLRTLREMQARSAMGGFEFMAPPTSDYYDGVRRRAGDVLTEAQIKECQELGVLVDRDDQGVLLQIFPKPVGDRPTLFLEIIQRIGCMERDEKGQEYQKGGCGGFGKGNFSQLFKSIEDYEKSLEAMQAAAAATAQGS
# modifications: Zea mays; ZmHPPD Amino Acid Sequence (Zea mays)
# B4: HaHPPDm-F372A-02: Helianthus annuus HPPD mutant F372A, SEQ ID NO: 96 (protein)
# chain: MGTEATVAAVVAGDESDHPTSAFKLVGFKNFIRTNPMSDKFTVKNFHHIEFWCSDATNTARRFSWGLGMPIIFKSDLSTGNSTHASYLLRSGHLNFLFTAPYSPSISPTTTTASIPTFSHSASRHFTATHGLAVRAIAVEVEDAETAFAVSVANGAKPSSPPVTLGHNDVVLSEVKLYGDVVLRYVSYKNNTNNNNNNDNDNYIFLPGFEAMDKTSSFQELDYGIRRLDHAVGNVPELAPAVDYVKSFTGFHEFAEFTAEDVGTSESGLNSVVLACNSEMVLIPMNEPVYGTKRKSQIQTYLEHNEGAGVQHLALASEDIFRTLREMRKRSGVGGFEFMPSPPPTYYRNLKSRAGDVLSDEQIKECEELGILVDRDDQGTLLQIATKPVGDRPTIFIEIIQRVGCMVKDDEGKVQQKAGCGGFGKGNFSELFKSIEEYEKTLEARSTTAAA
# modifications: HaHPPDm-F372A Amino Acid Sequence
# B5: MsHPPD-02: native Medicago sativa HPPD, SEQ ID NO: 99 (protein, listed as Medicago sativa)
# chain: MAIETETQTQTGFKLVGFKNFVRANPKSDRFKVKRFHHVEFWCTDATNTARRFSHGLGMPIVAKSDLSTGNQTHASYLLRSGDLNFLFSAAYSPSISLSSPSSTAAIPTFSASNCFSFSASHGLAVRAVAVEVEDAELAFTTSVNNGAIPSSPPVILENHVKLAEVRLYGDVVLRYVSYNDPNPNQNPNLLFLPGFERVSDESSNSSLDFGIRRLDHAVGNVPELSSAVKYVKDFTGFHEFAEFTAEDVGTSESGLNSVVLANNEETVLLPMNEPVYGTKRKSQIETYLEHNEGAGLQHLALKSEDIFRTLREMRKRSGVGGFEFMPSPPVTYYRNLKNRVGDVLSDEQIKECEELGILVDRDDQGTLLQIFTKPIGDRPTIFIEIIQRVGCMLKDEEGKEYQKGGCGGFGKGNFSELFKSIEEYEKTLETRRTA
# modifications: MsHPPD Amino Acid Sequence
# B6: MsHPPDm-F372A-02: Medicago sativa HPPD mutant F372A, SEQ ID NO: 102 (protein)
# chain: MAIETETQTQTGFKLVGFKNFVRANPKSDRFKVKRFHHVEFWCTDATNTARRFSHGLGMPIVAKSDLSTGNQTHASYLLRSGDLNFLFSAAYSPSISLSSPSSTAAIPTFSASNCFSFSASHGLAVRAVAVEVEDAELAFTTSVNNGAIPSSPPVILENHVKLAEVRLYGDVVLRYVSYNDPNPNQNPNLLFLPGFERVSDESSNSSLDFGIRRLDHAVGNVPELSSAVKYVKDFTGFHEFAEFTAEDVGTSESGLNSVVLANNEETVLLPMNEPVYGTKRKSQIETYLEHNEGAGLQHLALKSEDIFRTLREMRKRSGVGGFEFMPSPPVTYYRNLKNRVGDVLSDEQIKECEELGILVDRDDQGTLLQIATKPIGDRPTIFIEIIQRVGCMLKDEEGKEYQKGGCGGFGKGNFSELFKSIEEYEKTLETRRTA
# modifications: MsHPPDm-F372A Amino Acid Sequence
# Test system: Arabidopsis thaliana T1 plants
# Test: Topramezone tolerance of transgenic Arabidopsis thaliana T1 plants (pesticide damage grade by bleached leaf area, score, resistance evaluation)
# Assay type: in vivo
# Conditions: HPPDs from different species, 7 DAT; for Classification and statistics of pesticide damage grade Grade 0 / Classification and statistics of pesticide damage grade Grade 1 / Classification and statistics of pesticide damage grade Grade 2 / Classification and statistics of pesticide damage grade Grade 3: number of plants (of 16) in this grade; for Scores: score for pesticide damage 0-100
# Method in brief: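 Eighteen days after sowing, wild-type and HPPD-transgenic T1 Arabidopsis receive a topramezone spray at 1×, 2× or 4× field rate (25–100 g ai/ha) or water. Seven days later each plant is graded by its proportion of bleached leaf area.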
Molecule,Classification and statistics of pesticide damage grade Grade 0 (topramezone 25 g ai/ha (1x)),Classification and statistics of pesticide damage grade Grade 1 (topramezone 25 g ai/ha (1x)),Classification and statistics of pesticide damage grade Grade 2 (topramezone 25 g ai/ha (1x)),Classification and statistics of pesticide damage grade Grade 3 (topramezone 25 g ai/ha (1x)),Classification and statistics of pesticide damage grade Grade 0 (topramezone 100 g ai/ha (4x)),Classification and statistics of pesticide damage grade Grade 1 (topramezone 100 g ai/ha (4x)),Classification and statistics of pesticide damage grade Grade 2 (topramezone 100 g ai/ha (4x)),Classification and statistics of pesticide damage grade Grade 3 (topramezone 100 g ai/ha (4x)),Scores (topramezone 25 g ai/ha (1x)),Scores (topramezone 100 g ai/ha (4x)),Resistance evaluation (topramezone 25 g ai/ha (1x)),Resistance evaluation (topramezone 100 g ai/ha (4x))
B1,0,0,0,16,0,0,0,16,100,100,non-resistant (non-resistant plants (scores 68-100)),non-resistant (non-resistant plants (scores 68-100))
B2,0,6,10,0,0,0,4,12,54,92,poorly resistant (poorly resistant plants (scores 34-67)),non-resistant (non-resistant plants (scores 68-100))
B3,0,0,0,16,0,0,0,16,100,100,non-resistant (non-resistant plants (scores 68-100)),non-resistant (non-resistant plants (scores 68-100))
B4,0,8,8,0,0,2,12,2,50,67,poorly resistant (poorly resistant plants (scores 34-67)),poorly resistant (poorly resistant plants (scores 34-67))
B5,0,0,0,16,0,0,0,16,100,100,non-resistant (non-resistant plants (scores 68-100)),non-resistant (non-resistant plants (scores 68-100))
B6,5,7,4,0,0,4,9,3,31,65,moderately resistant (moderately resistant plants (scores 16-33)),poorly resistant (poorly resistant plants (scores 34-67))

# — patent US20230212587A1, “Mutant Hydroxyphenylpyruvate Dioxygenase Polypeptide, Encoding Gene Thereof and Use Therefor” (Beijing Dabeinong Biotechnology Co., Ltd., priority 2019, published 2023)
